Measured values from article PMC11912836, “Msh2-Msh3 DNA-binding is not sufficient to promote trinucleotide repeat expansions in Saccharomyces cerevisiae”.

What was measured:
[1] = target: Msh2-msh6(3MBD) (Saccharomyces cerevisiae) (UniProt P25847+Q03834); assay: BLI; details: BLI: 25 mM Tris-HCl pH 7.5, 1 mM EDTA, 100 mM NaCl, 0.1 mg/mL BSA, 1 mM DTT, 0.05% Tween-20; DNA 7.5 nM (30 nM for Msh2-Msh6); temperature not stated; no …
Msh2-Msh6 = Msh2-Msh6 (Saccharomyces cerevisiae, UniProt P25847;Q03834 1-964;1-1242); assay: BLI; BLI: 25 mM Tris-HCl pH 7.5, 1 mM EDTA, 100 mM NaCl, 0.1 mg/mL BSA, 1 mM DTT, 0.05% Tween-20; DNA 7.5 nM (30 nM for Msh2-Msh6); temperature not stated; no nucleotide or Mg2+ listed; details: protein: recombinant, copies: 1;1, label: 5' biotin on bottom strand
Msh2-Msh3 = Msh2-Msh3 (Saccharomyces cerevisiae, UniProt P25847;P25336 1-964;1-1018); assay: as above; details: protein: recombinant, copies: 1;1, label: 5' biotin on bottom strand
[2] = as printed, bottom strand has 1 extra nt (T opposite missing A after CTAGG of top; possible misprint), described as homoduplex
[3] = blunt, 8-nt extrahelical loop in top strand
[4] = blunt, extrahelical (CAG)10 quasi-hairpin in top strand
[5] = blunt, extrahelical (CTG)10 quasi-hairpin in top strand

Chain of Msh2-Msh6 (P25847 whole entry, chain 1 of 2): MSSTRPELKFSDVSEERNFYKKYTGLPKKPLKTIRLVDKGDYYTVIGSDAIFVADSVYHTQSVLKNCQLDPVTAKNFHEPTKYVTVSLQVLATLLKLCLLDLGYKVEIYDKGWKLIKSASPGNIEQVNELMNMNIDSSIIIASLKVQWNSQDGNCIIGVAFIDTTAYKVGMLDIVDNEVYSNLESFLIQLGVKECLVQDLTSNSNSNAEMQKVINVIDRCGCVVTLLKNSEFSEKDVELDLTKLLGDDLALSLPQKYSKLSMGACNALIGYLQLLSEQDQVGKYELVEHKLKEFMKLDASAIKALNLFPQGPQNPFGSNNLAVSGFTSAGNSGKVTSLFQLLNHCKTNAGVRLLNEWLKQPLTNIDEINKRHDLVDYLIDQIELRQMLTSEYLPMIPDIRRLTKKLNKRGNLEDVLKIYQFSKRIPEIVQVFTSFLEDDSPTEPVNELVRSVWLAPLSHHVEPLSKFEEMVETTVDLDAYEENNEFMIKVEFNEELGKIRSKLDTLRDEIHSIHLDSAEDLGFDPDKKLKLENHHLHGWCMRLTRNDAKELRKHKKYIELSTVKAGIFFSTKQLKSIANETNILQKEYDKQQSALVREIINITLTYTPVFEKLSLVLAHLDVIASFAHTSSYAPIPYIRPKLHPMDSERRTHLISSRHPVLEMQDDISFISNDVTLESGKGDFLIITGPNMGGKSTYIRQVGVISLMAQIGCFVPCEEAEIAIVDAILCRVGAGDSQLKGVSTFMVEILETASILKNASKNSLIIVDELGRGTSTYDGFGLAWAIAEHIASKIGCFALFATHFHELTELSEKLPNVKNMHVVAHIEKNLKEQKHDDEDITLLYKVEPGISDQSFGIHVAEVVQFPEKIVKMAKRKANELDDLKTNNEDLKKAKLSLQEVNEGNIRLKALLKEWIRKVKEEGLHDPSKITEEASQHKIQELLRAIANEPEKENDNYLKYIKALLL
Chain of Msh2-Msh6 (Q03834 whole entry, chain 2 of 2): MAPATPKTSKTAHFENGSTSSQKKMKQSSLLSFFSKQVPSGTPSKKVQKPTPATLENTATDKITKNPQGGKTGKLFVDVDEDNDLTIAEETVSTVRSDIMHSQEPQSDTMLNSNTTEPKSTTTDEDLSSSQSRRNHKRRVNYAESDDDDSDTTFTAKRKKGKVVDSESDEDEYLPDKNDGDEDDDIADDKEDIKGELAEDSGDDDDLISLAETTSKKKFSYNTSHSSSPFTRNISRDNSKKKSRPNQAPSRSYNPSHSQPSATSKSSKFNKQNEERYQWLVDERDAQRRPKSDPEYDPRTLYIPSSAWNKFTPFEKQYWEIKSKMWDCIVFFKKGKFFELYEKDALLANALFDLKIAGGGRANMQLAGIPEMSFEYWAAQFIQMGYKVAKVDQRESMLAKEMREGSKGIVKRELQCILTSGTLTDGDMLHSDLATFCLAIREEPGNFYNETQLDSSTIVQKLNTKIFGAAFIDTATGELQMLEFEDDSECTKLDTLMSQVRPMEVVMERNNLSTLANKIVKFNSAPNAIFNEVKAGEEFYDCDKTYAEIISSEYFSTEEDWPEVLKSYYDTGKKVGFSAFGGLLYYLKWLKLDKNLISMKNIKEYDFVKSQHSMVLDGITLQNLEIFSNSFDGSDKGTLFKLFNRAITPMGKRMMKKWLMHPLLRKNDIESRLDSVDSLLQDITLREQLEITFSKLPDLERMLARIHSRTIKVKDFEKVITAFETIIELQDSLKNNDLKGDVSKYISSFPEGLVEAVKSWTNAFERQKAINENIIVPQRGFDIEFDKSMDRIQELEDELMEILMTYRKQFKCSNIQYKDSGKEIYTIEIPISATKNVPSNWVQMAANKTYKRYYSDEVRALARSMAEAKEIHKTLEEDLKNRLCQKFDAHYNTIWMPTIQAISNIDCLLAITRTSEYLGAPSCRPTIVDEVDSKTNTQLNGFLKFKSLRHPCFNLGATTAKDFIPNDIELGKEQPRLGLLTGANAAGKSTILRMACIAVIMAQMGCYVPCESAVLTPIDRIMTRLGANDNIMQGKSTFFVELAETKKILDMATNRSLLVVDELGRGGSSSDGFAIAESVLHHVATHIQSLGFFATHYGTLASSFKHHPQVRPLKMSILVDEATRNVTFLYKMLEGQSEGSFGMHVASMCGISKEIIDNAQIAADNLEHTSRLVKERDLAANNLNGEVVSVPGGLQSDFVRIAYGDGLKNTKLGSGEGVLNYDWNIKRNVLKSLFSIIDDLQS
Chain of Msh2-msh6(3MBD) (Saccharomyces cerevisiae) (P25847 whole entry, chain 1 of 2): as the sequence (P25847 whole entry, chain 1 of 2) above
Chain of Msh2-msh6(3MBD) (Saccharomyces cerevisiae) (Q03834 whole entry, chain 2 of 2): as the sequence (Q03834 whole entry, chain 2 of 2) above
Chain of Msh2-Msh3 (P25847 whole entry, chain 1 of 2): as the sequence (P25847 whole entry, chain 1 of 2) above
Chain of Msh2-Msh3 (P25336 whole entry, chain 2 of 2): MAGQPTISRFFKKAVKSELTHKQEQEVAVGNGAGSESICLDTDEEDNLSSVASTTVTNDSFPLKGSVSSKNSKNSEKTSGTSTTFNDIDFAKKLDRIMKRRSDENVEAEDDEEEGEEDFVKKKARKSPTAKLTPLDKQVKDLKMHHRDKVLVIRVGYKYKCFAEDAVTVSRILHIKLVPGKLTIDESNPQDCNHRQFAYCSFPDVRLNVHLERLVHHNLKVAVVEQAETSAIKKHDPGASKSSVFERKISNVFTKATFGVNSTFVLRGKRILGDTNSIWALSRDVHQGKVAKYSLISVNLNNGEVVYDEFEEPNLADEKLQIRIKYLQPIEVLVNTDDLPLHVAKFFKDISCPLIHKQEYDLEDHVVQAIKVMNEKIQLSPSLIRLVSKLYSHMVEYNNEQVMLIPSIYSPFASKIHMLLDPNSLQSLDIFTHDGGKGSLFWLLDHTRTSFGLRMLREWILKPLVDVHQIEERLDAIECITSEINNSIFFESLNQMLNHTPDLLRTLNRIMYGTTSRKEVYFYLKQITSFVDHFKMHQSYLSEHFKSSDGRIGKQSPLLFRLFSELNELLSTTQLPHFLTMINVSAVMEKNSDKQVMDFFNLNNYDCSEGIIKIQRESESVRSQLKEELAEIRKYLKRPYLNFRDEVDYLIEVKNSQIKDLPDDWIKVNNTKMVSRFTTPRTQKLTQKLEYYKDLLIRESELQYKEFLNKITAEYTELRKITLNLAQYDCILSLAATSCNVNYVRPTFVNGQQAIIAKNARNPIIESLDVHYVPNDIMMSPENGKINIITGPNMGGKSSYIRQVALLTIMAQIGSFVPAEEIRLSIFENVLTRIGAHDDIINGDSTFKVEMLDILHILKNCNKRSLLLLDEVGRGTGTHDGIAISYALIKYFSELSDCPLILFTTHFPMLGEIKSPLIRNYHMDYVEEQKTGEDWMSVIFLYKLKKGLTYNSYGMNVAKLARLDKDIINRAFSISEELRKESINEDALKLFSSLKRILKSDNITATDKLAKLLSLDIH

CACGCTACCGAATTCTGACTTGCTAGCAGCAGCAGCAGCAGCAGCAGCAGCAGCAGGACATCTTTGCCCACGTTGACCC / GGGTCAACGTGGGCAAAGATGTCCTAGCAAGTCAGAATTCGGTAGCGTG [(CAG)10 (LS-CAG/LS2-Bio)]
Kd [1]: 2.37 nM

CACGCTACCGAATTCTGACTTGCTAGGTGTGTGTGACATCTTTGCCCACGTTGACCC / GGGTCAACGTGGGCAAAGATGTCCTAGCAAGTCAGAATTCGGTAGCGTG [+8 loop, (GT)4 (LS8/LS2-Bio)]
Kd [1]: 0.872 nM

CACGCTACCGAATTCTGACTTGCTAGCTGCTGCTGCTGCTGCTGCTGCTGCTGCTGGACATCTTTGCCCACGTTGACCC / GGGTCAACGTGGGCAAAGATGTCCTAGCAAGTCAGAATTCGGTAGCGTG [(CTG)10 (LS-CTG/LS2-Bio)]
Kd [1]: 1.05 nM

CACGCTACCGAATTCTGACTTGCTAGGCATCTTTGCCCACGTTGACCC / GGGTCAACGTGGGCAAAGATGTCCTAGCAAGTCAGAATTCGGTAGCGTG [Homoduplex (LS1/LS2-Bio)]
Kd [1]: 7.16 nM

B1: Homoduplex (LS1/LS2-Bio) (dsDNA)
DNA 1: CACGCTACCGAATTCTGACTTGCTAGGCATCTTTGCCCACGTTGACCC
DNA 2: GGGTCAACGTGGGCAAAGATGTCCTAGCAAGTCAGAATTCGGTAGCGTG
Kd (Msh2-Msh6; [2]): 21 nM
Kd (Msh2-Msh3; [2]): 9.22 nM

B2: +8 loop, (GT)4 (LS8/LS2-Bio) (dsDNA)
DNA 1: CACGCTACCGAATTCTGACTTGCTAGGTGTGTGTGACATCTTTGCCCACGTTGACCC
DNA 2: B1 DNA 2
Kd (Msh2-Msh6; [3]): 8.67 nM
Kd (Msh2-Msh3; [3]): 2.62 nM

B3: (CAG)10 (LS-CAG/LS2-Bio) (dsDNA)
DNA 1: CACGCTACCGAATTCTGACTTGCTAGCAGCAGCAGCAGCAGCAGCAGCAGCAGCAGGACATCTTTGCCCACGTTGACCC
DNA 2: B1 DNA 2
Kd (Msh2-Msh6; [4]): 2.73 nM
Kd (Msh2-Msh3; [4]): 1.38 nM

B4: (CTG)10 (LS-CTG/LS2-Bio) (dsDNA)
DNA 1: CACGCTACCGAATTCTGACTTGCTAGCTGCTGCTGCTGCTGCTGCTGCTGCTGCTGGACATCTTTGCCCACGTTGACCC
DNA 2: B1 DNA 2
Kd (Msh2-Msh6; [5]): 3.07 nM
Kd (Msh2-Msh3; [5]): 2.25 nM
